Experimental data: patent US20220152154A1, “GROWTH DIFFERENTIATION FACTOR 15 COMBINATION THERAPY” (Amgen Inc., priority 2019, published 2022)

Legend:
[1] = Food intake measured three consecutive days per week; type: in vivo; design: key: ns: not significant; *: p < 0.05; **: p < 0.005; ***: p < 0.001; ****: p < 0.0001; details: male C57Bl/6 DIO mice, 2-way ANOVA with Dunnett's analysis
Protocol: (§1) Male C57Bl/6 DIO mice, 19-20 weeks old (13-14 weeks on high fat diet) at beginning of dosing, were placed into the following treatment groups: Group A—Vehicle, in which the animals were administered vehicle weekly; Group B—Dulaglutide, in which the animals were administered 0.1 mg/kg (2 nmol/kg) of dulaglutide twice per week; Group C—GIPR Ab, in which the animals were administered 5 mg/kg (33 nmol/kg) of antibody 2.63.1 (having a light and heavy chain sequence of SEQ ID NOs: 105 and 106, respectively) weekly and vehicle weekly (the latter being on the alternate dulaglutide dosing day); Group D—GDF15, in which the animals were administered 0.125 mg/kg (1 nmol/kg) of FcΔ10(−)-(G4S)4-GDF15 (SEQ ID NO: 39) (along with its heterodimerization partner, FcΔ10(+,K) (SEQ ID NO: 32)) weekly and vehicle weekly (the latter on the alternate dulaglutide dosing day); Group E—GDF15+Dulaglutide, in which the animals were administered 0.125 mg/kg (1 nmol/kg) of FcΔ10(−)-(G4S)4-GDF15) (along with its heterodimerization partner, FcΔ10(+,K)) weekly and 0.1 mg/kg (2 nmol/kg) of dulaglutide twice per week; Group F—GDF15+GIPR Ab, in which the animals were administered 0.125 mg/kg (1 nmol/kg) of FcΔ10(−)-(G4S)4-GDF15 (along with its heterodimerization partner, FcΔ10(+,K)) weekly and 5 mg/kg (33 nmol/kg) of antibody 2.63.1 weekly. The animals were dosed for 5 weeks with through subcutaneous injection.

[2] = Body weight change in DIO mice treated for 5 weeks; type: in vivo; design: key to Significance of Body Weight Change: ns: not significant; *: p < 0.05; **: p < 0.005; ***: p < 0.001; ****: p < 0.0001; details: subcutaneous; for Significance of Body Weight Change: male C57Bl/6 DIO mice, 2-way ANOVA with Dunnett's analysis; for change in body weight: DIO mice
Protocol: as §1
Body weight was measured twice per week.

B1: GIPR Ab: GIPR antibody 2.63.1 having a light and heavy chain sequence of SEQ ID NOs: 105 and 106 (antibody)
heavy: MGWSYIILFLVATATDVHSQVQLQQPGAELVKPGASVKLSCRASGYTFTSNWMHWVKQRPRQGLEWIGEINPSNGRSNYNEKFKTKATLTVDKSSSTAYMQLSSLTSEDSAVYYCARFYYGTSWFAYWGQGTLVAVSAAKTTPPSVYPLAPGSAAQTNSMVTLGCLVKGYFPEPVTVTWNSGSLSSGVHTFPAVLQSDLYTLSSSVTVPSSTWPSETVTCNVAHPASSTKVDKKIVPRDCGCKPCICTVPEVSSVFIFPPKPKDVLTITLTPKVTCVVVDISKDDPEVQFSWFVDDVEVHTAQTQPREEQFASTFRSVSELPIMHQDWLNGKEFKCRVNSAAFPAPIEKTISKTKGRPKAPQVYTIPPPKEQMAKDKVSLTCMITDFFPEDITVEWQWNGQPAENYKNTQPIMDTDGSYFVYSKLNVQKSNWEAGNTFTCSVLHEGLHNHHTEKSLSHSPGK
light: MKLPVRLLVLMFWIPASSSDVVMTQTPLSLPVSLGDQASISCRSSQSLVHSNGDTYLHWYLQKPGQSPKLLIYKVSNRFSGVPDRFSGSGSGTDFTLKISRVEAADLGVYFCSQSTHVPPFTFGGGTKLEIKRADAAPTVSIFPPSSEQLTSGGASVVCFLNNFYPKDINVKWKIDGSERQNGVLNSWTDQDSKDSTYSMSSTLTLTKDEYERHNSYTCEATHKTSTSPIVKSFNRNEC
**Q.** With B1 as the molecule, how does the “Significance of Food Intake Assay” value ([1]; D2) read?
**A.** ns

**Q.** And the “Significance of Food Intake Assay” value ([1]; D8)?
**A.** ns

**Q.** And the “Significance of Food Intake Assay” value ([1]; D9)?
**A.** ns

**Q.** And the “Significance of Food Intake Assay” value ([1]; D10)?
**A.** ns

**Q.** What about the “Significance of Food Intake Assay” value ([1]; D15) of the same molecule?
**A.** ns

**Q.** What about the “Significance of Food Intake Assay” value ([1]; D16) of the same molecule?
**A.** ns

**Q.** And the “Significance of Food Intake Assay” value ([1]; D17)?
**A.** ns

**Q.** And the “Significance of Food Intake Assay” value ([1]; D22)?
**A.** * (p < 0.05)

**Q.** What about the “Significance of Food Intake Assay” value ([1]; D23) of the same molecule?
**A.** ns

**Q.** And the “Significance of Food Intake Assay” value ([1]; D24)?
**A.** ns

**Q.** And the “Significance of Food Intake Assay” value ([1]; D29)?
**A.** ns

**Q.** What about the “Significance of Food Intake Assay” value ([1]; D30) of the same molecule?
**A.** ns

**Q.** What about the “Significance of Food Intake Assay” value ([1]; D31) of the same molecule?
**A.** ns

**Q.** And the “Significance of Body Weight Change” value ([2]; D0)?
**A.** ns

**Q.** And the “Significance of Body Weight Change” value ([2]; D3)?
**A.** ns

**Q.** And the “Significance of Body Weight Change” value ([2]; D7)?
**A.** ns

**Q.** And the “Significance of Body Weight Change” value ([2]; D10)?
**A.** ns

**Q.** What about the “Significance of Body Weight Change” value ([2]; D14) of the same molecule?
**A.** ns

**Q.** What about the “Significance of Body Weight Change” value ([2]; D17) of the same molecule?
**A.** ns

**Q.** What about the “Significance of Body Weight Change” value ([2]; D21) of the same molecule?
**A.** ns

**Q.** And the “Significance of Body Weight Change” value ([2]; D31)?
**A.** ns

**Q.** What about the “Significance of Body Weight Change” value ([2]; D35) of the same molecule?
**A.** ns

**Q.** And the “Significance of Body Weight Change” value ([2]; D-4)?
**A.** ns

**Q.** And the “change in body weight” value ([2]; five weeks after treatment)?
**A.** 2.24%

**Q.** What about the “change in body weight” value ([2]; two weeks after treatment) of the same molecule?
**A.** −0.91%
